These results are taken from publication PMC10857128.

Test [1] has as its target peppermint leaf-type ferredoxin NADP+ reductase (L-FNR) (Mentha × piperita (peppermint)).
Test [2] concerns the target peppermint root-type ferredoxin NADP+ reductase (R-FNR) (Mentha × piperita (peppermint)).
Test [3] shares this target. The source holds these as a separate data set.

In the case of “peppermint leaf-type ferredoxin (Fd I) (natural protein)”, in test [1], the Km^Fd, FNR–Fd-dependent cytochrome c reduction (NADPH-dependent cytochrome c reductase assay, Fd varied 0.3-20 µM, 30 °C, 50 mM Tris pH 7.5) turned out to be 2.3 µM; the kcat, FNR–Fd-dependent cytochrome c reduction (NADPH-dependent cytochrome c reductase assay, Fd varied 0.3-20 µM, 30 °C, 50 mM Tris pH 7.5) amounted to 125 s^−1; the kcat/Km^Fd, FNR–Fd-dependent cytochrome c reduction (NADPH-dependent cytochrome c reductase assay, Fd varied 0.3-20 µM, 30 °C, 50 mM Tris pH 7.5) was determined as 54.2 µM^−1s^−1. In test [2], the Km^Fd, FNR–Fd-dependent cytochrome c reduction (NADPH-dependent cytochrome c reductase assay, Fd varied 0.3-20 µM, 30 °C, 50 mM Tris pH 7.5) was determined as 3.6 µM; the kcat, FNR–Fd-dependent cytochrome c reduction (NADPH-dependent cytochrome c reductase assay, Fd varied 0.3-20 µM, 30 °C, 50 mM Tris pH 7.5) stood at 281 s^−1; the kcat/Km^Fd, FNR–Fd-dependent cytochrome c reduction (NADPH-dependent cytochrome c reductase assay, Fd varied 0.3-20 µM, 30 °C, 50 mM Tris pH 7.5) turned out to be 78.3 µM^−1s^−1.

Regarding “peppermint root-type ferredoxin (Fd III) (natural protein)”, in test [1], the Km^Fd, FNR–Fd-dependent cytochrome c reduction (NADPH-dependent cytochrome c reductase assay, Fd varied 0.3-20 µM, 30 °C, 50 mM Tris pH 7.5) was found to be 2.9 µM; the kcat, FNR–Fd-dependent cytochrome c reduction (NADPH-dependent cytochrome c reductase assay, Fd varied 0.3-20 µM, 30 °C, 50 mM Tris pH 7.5) amounted to 286 s^−1; the kcat/Km^Fd, FNR–Fd-dependent cytochrome c reduction (NADPH-dependent cytochrome c reductase assay, Fd varied 0.3-20 µM, 30 °C, 50 mM Tris pH 7.5) came out at 98.1 µM^−1s^−1. Further, in test [2], the Km^Fd, FNR–Fd-dependent cytochrome c reduction (NADPH-dependent cytochrome c reductase assay, Fd varied 0.3-20 µM, 30 °C, 50 mM Tris pH 7.5) amounted to 2.3 µM; the kcat, FNR–Fd-dependent cytochrome c reduction (NADPH-dependent cytochrome c reductase assay, Fd varied 0.3-20 µM, 30 °C, 50 mM Tris pH 7.5) is 428 s^−1; the kcat/Km^Fd, FNR–Fd-dependent cytochrome c reduction (NADPH-dependent cytochrome c reductase assay, Fd varied 0.3-20 µM, 30 °C, 50 mM Tris pH 7.5) came to 189 µM^−1s^−1. Besides, the Km value for Fd III as told in the text, NADPH-dependent cytochrome c reductase assay (differs from the cell of Table 2) in test [3] was 2.1 µM.

In the case of “peppermint root-type ferredoxin (Fd II) (natural protein)”, in test [1], the Km^Fd, FNR–Fd-dependent cytochrome c reduction (NADPH-dependent cytochrome c reductase assay, Fd varied 0.3-20 µM, 30 °C, 50 mM Tris pH 7.5) is 2.8 µM; the kcat, FNR–Fd-dependent cytochrome c reduction (NADPH-dependent cytochrome c reductase assay, Fd varied 0.3-20 µM, 30 °C, 50 mM Tris pH 7.5) came out at 304 s^−1; the kcat/Km^Fd, FNR–Fd-dependent cytochrome c reduction (NADPH-dependent cytochrome c reductase assay, Fd varied 0.3-20 µM, 30 °C, 50 mM Tris pH 7.5) was determined as 109 µM^−1s^−1. Also, in test [2], the Km^Fd, FNR–Fd-dependent cytochrome c reduction (NADPH-dependent cytochrome c reductase assay, Fd varied 0.3-20 µM, 30 °C, 50 mM Tris pH 7.5) was 1.9 µM; the kcat, FNR–Fd-dependent cytochrome c reduction (NADPH-dependent cytochrome c reductase assay, Fd varied 0.3-20 µM, 30 °C, 50 mM Tris pH 7.5) worked out at 428 s^−1; the kcat/Km^Fd, FNR–Fd-dependent cytochrome c reduction (NADPH-dependent cytochrome c reductase assay, Fd varied 0.3-20 µM, 30 °C, 50 mM Tris pH 7.5) turned out to be 222 µM^−1s^−1.
